Legend:
Test in all cases: ITC
[1] = molecular target: human NaV1.5 CTD (1773-1940) D1790G (human) (UniProt Q14524)
[2] = molecular target: human NaV1.6 C-terminal domain (CTD), amino acids 1769-1926, wild type (human) (UniProt Q9UQD0)
[3] = molecular target: human NaV1.5 CTD (1773-1940) Q1909R (human) (UniProt Q14524)
[4] = molecular target: human NaV1.2 CTD (1777-1937) R1918H (human) (UniProt Q99250)
[5] = molecular target: human NaV1.5 C-terminal domain (CTD), amino acids 1773-1940, wild type (human) (UniProt Q14524)
[6] = molecular target: human NaV1.5 CTD (1773-1940) R1913H (human) (UniProt Q14524)
[7] = molecular target: human NaV1.5 CTD (1773-1940) Y1795C (human) (UniProt Q14524)
[8] = molecular target: human NaV1.5 CTD (1773-1940) L1917K (human) (UniProt Q14524)
[9] = molecular target: human NaV1.5 CTD (1773-1940) Y1795H (human) (UniProt Q14524)
[10] = molecular target: human NaV1.2 CTD (1777-1937) H1853R (human) (UniProt Q99250)
[11] = molecular target: human NaV1.2 C-terminal domain (CTD), amino acids 1777-1937, wild type (human) (UniProt Q99250)

dH [2]: -17.5 kcal/mol | dH [4]: -7.5 kcal/mol | dH [10]: -8.3 kcal/mol | dH [11]: -4.54 kcal/mol | stoichiometry N [11]: 1.02
Substance: calmodulin (CaM) (from UniProt P0DP23 1-149) (natural protein)
dH [1]: -10.5 kcal/mol | stoichiometry N [1]: 0.25 | dH [3]: -14.9 kcal/mol | dH [5]: -10.5 kcal/mol | stoichiometry N [6]: 0.73 | dH [7]: -7.43 kcal/mol | stoichiometry N [7]: 0.92 | dH [8]: -9.8 kcal/mol | stoichiometry N [8]: 0.98 | dH [9]: -10.2 kcal/mol | stoichiometry N [9]: 0.76

— publication PMC5299624
